Results taken from patent publication US20260159603A1 (BEAM THERAPEUTICS, published 2026).

T1: biotinylated human CD5-HIS (human, UniProt P06127 25-372, biotinylated)
T1 construct: Loaded onto streptavidin Octet pins; also called huCD5; SA-human CD5; not shown: HIS tag
T1 sequence (looked up): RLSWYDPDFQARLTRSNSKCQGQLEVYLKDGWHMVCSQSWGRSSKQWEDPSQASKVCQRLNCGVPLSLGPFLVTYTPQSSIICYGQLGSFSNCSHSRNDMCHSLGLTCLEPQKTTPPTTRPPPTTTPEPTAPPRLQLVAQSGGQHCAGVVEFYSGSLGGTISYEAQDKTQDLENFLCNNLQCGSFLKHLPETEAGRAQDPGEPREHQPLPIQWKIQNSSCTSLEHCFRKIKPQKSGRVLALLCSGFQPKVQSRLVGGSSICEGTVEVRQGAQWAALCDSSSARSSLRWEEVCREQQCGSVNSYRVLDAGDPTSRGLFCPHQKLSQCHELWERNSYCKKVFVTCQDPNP

T2: human CD5 on transfected HEK293T cells (human, UniProt P06127 25-495)
T2 construct: whole, on cells; also called huCD5; Human CD5 Cells
T2 sequence (looked up): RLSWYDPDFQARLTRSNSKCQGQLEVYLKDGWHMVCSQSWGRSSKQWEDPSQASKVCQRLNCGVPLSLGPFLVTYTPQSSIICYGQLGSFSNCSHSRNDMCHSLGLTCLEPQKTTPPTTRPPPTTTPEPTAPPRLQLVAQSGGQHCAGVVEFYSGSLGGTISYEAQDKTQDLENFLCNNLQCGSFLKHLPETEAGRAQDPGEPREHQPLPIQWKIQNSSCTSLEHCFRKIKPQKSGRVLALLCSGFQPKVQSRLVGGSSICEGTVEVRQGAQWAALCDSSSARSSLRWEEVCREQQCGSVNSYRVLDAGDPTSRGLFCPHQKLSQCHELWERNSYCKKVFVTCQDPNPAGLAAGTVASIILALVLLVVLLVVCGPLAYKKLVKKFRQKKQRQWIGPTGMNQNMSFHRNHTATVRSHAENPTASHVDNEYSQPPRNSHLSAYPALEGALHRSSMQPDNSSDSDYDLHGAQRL


Columns and labels:
[1] = biological target: T1, biotinylated human CD5-HIS; experiment: BLI; KD on human CD5 divided by KD on cynomolgus CD5
[2] = biological target: T1, biotinylated human CD5-HIS; experiment: BLI (Octet), biotinylated CD5-HIS on streptavidin pins
[3] = biological target: T3, biotinylated cynomolgus CD5-HIS (cynomolgus); experiment: as above
T3 construct: Loaded onto streptavidin Octet pins; also called CynoCD5; SA-Cyno CD5

[4] = biological target: T2, human CD5 on transfected HEK293T cells; experiment: flow cytometry, periplasmic extract on transfected HEK293T cells
[5] = biological target: T4, cynomolgus CD5 on transfected HEK293T cells (cynomolgus (Table 8B); rhesus macaque …); experiment: as above
T4 construct: whole, on cells; also called Cynomolgus CD5 Cells; rhesus macaque (Macaca mulatta) CD5

[6] = biological target: T1, biotinylated human CD5-HIS; experiment: BLI (Octet), biotinylated CD5-HIS on streptavidin pins, periplasmic extract, off-rate
[7] = biological target: T3, biotinylated cynomolgus CD5-HIS; experiment: as above

Binder	Hu/Cyno KD [1]	Kd [2]	koff [2]	kon [2]	Kd [3]	koff [3]	kon [3]	percent of cells showing binding [4]	percent of cells showing binding [5]	koff [6]	koff [7]
ABTx327 (VHH, VHH in periplasmic extract of the phage display clone; also called clone 834; not shown: c-myc tag of the phagemid construct (detected with anti-c-myc 9E10)) VHH: QVQLVESGGGLVQPGGSLRLSCVASGGTFSTYGMGWFRQAPGKEREFVAVITGSGVGTQYADSVKDRFTISRENAKNTVYLQMNTLKLEDTAVYYCVSGHRPGWAVIRADAYEYWGQGTQVTVSS	0.3	0.22 nM	3.6e-05 s⁻¹	160000 M⁻¹ s⁻¹	0.78 nM	0.00011 s⁻¹	140000 M⁻¹ s⁻¹	68%	71.7%	0.0195 s⁻¹	0.0329 s⁻¹
ABTx325 (VHH, VHH in periplasmic extract of the phage display clone; also called clone 420; not shown: c-myc tag of the phagemid construct (detected with anti-c-myc 9E10)) VHH: QVQLVESGGGLVQPGGSLRLSCAASGSDASTNNMAWYRQAPGKEREFVALIRTGGSTHVADSMKGRFTISRENAKNTVYLQMNSLKPEDTAVYYCVIWTGSPGALSDYWGQGTQVTVSS	0.8	1.5 nM	0.00013 s⁻¹	90000 M⁻¹ s⁻¹	1.8 nM	0.00013 s⁻¹	68000 M⁻¹ s⁻¹	77.4%	80%	0.0027 s⁻¹	0.0143 s⁻¹
ABTx323 (VHH, VHH in periplasmic extract of the phage display clone; also called clone 155; not shown: c-myc tag of the phagemid construct (detected with anti-c-myc 9E10)) VHH: QVQLQESGGGLVQAGGSLRLSCATSGITSSINVIGWYRQAPGKQRELVALVNSGGQTHYADSVKGRFTISRDNAKNTVFLQMNSLKPEDTAEYYCHGRYGIDNYWGEGTQVTVSS	0.9	1.2 nM	0.00011 s⁻¹	93000 M⁻¹ s⁻¹	1.3 nM	0.00012 s⁻¹	89000 M⁻¹ s⁻¹	64.1%	54.6%	0.000138 s⁻¹	0.000347 s⁻¹
ABTx324 (VHH, VHH in periplasmic extract of the phage display clone; also called clone 550; not shown: c-myc tag of the phagemid construct (detected with anti-c-myc 9E10)) VHH: QVQLVESGGGLVQPGGSVRLSCATSGSIFSTNVMGWYRQAPGKEREFVALIRGGGSTHYADSVKGRFIISRENAKTTVYLQMNGLKPEDTAVYYCVIWLGSPGAMSDYWGQGTQVTVSS	0.7	1.7 nM	0.00017 s⁻¹	99000 M⁻¹ s⁻¹	2.3 nM	0.00016 s⁻¹	71000 M⁻¹ s⁻¹	73.3%	73.2%	0.00271 s⁻¹	0.0177 s⁻¹
ABTx329 (VHH, VHH in periplasmic extract of the phage display clone; also called clone 1091; not shown: c-myc tag of the phagemid construct (detected with anti-c-myc 9E10)) VHH: QLQLVESGGGLVQPGESLRLSCAASGFSFSRVGMNWYRQAPGKERELVASISSDGSRTNYAHFVKGRFTISRDNVKNMVYLQMNSLKLEDTAVYYCNVPGNSWGQGTQVTVSS	0.4	0.69 nM	9.3e-05 s⁻¹	130000 M⁻¹ s⁻¹	1.6 nM	0.00017 s⁻¹	110000 M⁻¹ s⁻¹	72%	66.5%	0.000372 s⁻¹	0.000488 s⁻¹
ABTx326 (VHH, VHH in periplasmic extract of the phage display clone; also called clone 199; not shown: c-myc tag of the phagemid construct (detected with anti-c-myc 9E10)) VHH: QVQLVESGGGLVQPGGSLRLSCAASGRTFINYAAGWFRQAPGKEREFVARISRSGGRTDYADSVKGRFTISRDNAKSTVYLQMNSLRPEDTAVYYCAEATVWEFTDGADQYDYWGQGTQVTVSS	0.9	2 nM	0.00015 s⁻¹	74000 M⁻¹ s⁻¹	2.2 nM	0.00015 s⁻¹	68000 M⁻¹ s⁻¹	41.6%	58.4%	0.000825 s⁻¹	0.00415 s⁻¹
